Measured values as given in US20190142971A1, “FORMULATION AND DELIVERY OF MODIFIED NUCLEOSIDE, NUCLEOTIDE, AND NUCLEIC ACID COMPOSITIONS” (ModernaTX, Inc., priority 2013, published 2019).

Columns and labels:
[1] = system: non-human primates (cynomolgus monkey); assay: Example 21: LNP IV in non-human primates, serum EPO/G-CSF ELISA (Table 37); assay type: in vivo; conditions: for protein expression detectable out to: NHP IV
Procedure: Formulations, listed in Table 33, were characterized by particle size, zeta potential, and encapsulation.
LNP formulations, shown in Table 33 (above), were administered to non-human primates (NHP) (cynomolgus monkey) (n=2) as a bolus intravenous injection (IV) over approximately 30 seconds using a hypodermic needle, which may be attached to a syringe/abbocath or butterfly if needed. The NHP were administered a single modified mRNA IV dose of 0.05 mg/kg of EPO or G-CSF or 0.005 mg/kg of EPO in a dose volume of 0.5 mL/kg. The NHPs were bled 5-6 days before dosing with the modified mRNA LNP formulations to determine protein expression in the serum and a baseline complete blood count. After administration with the modified mRNA formulation the NHP were bled at 8, 24, 48 and 72 hours to determined protein expression. At 24 and 72 hours after administration the complete blood count of the NHP was also determined. Protein expression of G-CSF and EPO was determined by ELISA. Urine from the NHPs was collected over the course of the entire experiment and analyzed to evaluate clinical safety. Samples were collected from the NHPs after they were administered with G-CSF or EPO modified mRNA formulations to determine protein expression using ELISA. Clinical chemistry, hematology, urinalysis and cytokines of the non-human primates were also analyzed.

[2] = system: non-human primates (cynomolgus monkey); assay: Example 22: LNP IV in non-human primates, serum G-CSF/EPO ELISA (Tables 38, 39); assay type: in vivo; conditions: 0.005 mg/kg IV
Procedure: LNP formulations, shown in Table 33 (above), were administered to non-human primates (NHP) (cynomolgus monkey) (n=2) as intravenous injection (IV). The NHP were administered a single modified mRNA IV dose of 0.5 mg/kg, 0.05 mg/kg or 0.005 mg/kg of G-CSF or EPO in a dose volume of 0.5 mL/kg. The NHPs were bled before dosing with the modified mRNA LNP formulations to determine protein expression in the serum and a baseline complete blood count. After administration with the G-CSF modified mRNA formulation the NHP were bled at 8, 24, 48 and 72 hours to determined protein expression. After administration with the EPO modified mRNA formulation the NHP were bled at 8, 24, 48, 72 hours and 7 days to determined protein expression.
Samples collected from the NHPs after they were administered with G-CSF or EPO modified mRNA formulations were analyzed by ELISA to determine protein expression. Neutrophil and reticulocyte count was also determined pre-dose, 24 hours, 3 days, 7 days, 14 days and 18 days after administration of the modified G-CSF or EPO formulation.

B1: EPO: modified mRNA encoding human erythropoietin, SEQ ID NO: 7, Cap1, fully modified with 5-methylcytosine and pseudouridine; LNP NPA-060-1 in Examples 17-22 (nucleic acid)
chain: GGGAAAUAAGAGAGAAAAGAAGAGUAAGAAGAAAUAUAAGAGCCACCAUGGGAGUGCACGAGUGUCCCGCGUGGUUGUGGUUGCUGCUGUCGCUCUUGAGCCUCCCACUGGGACUGCCUGUGCUGGGGGCACCACCCAGAUUGAUCUGCGACUCACGGGUACUUGAGAGGUACCUUCUUGAAGCCAAAGAAGCCGAAAACAUCACAACCGGAUGCGCCGAGCACUGCUCCCUCAAUGAGAACAUUACUGUACCGGAUACAAAGGUCAAUUUCUAUGCAUGGAAGAGAAUGGAAGUAGGACAGCAGGCCGUCGAAGUGUGGCAGGGGCUCGCGCUUUUGUCGGAGGCGGUGUUGCGGGGUCAGGCCCUCCUCGUCAACUCAUCACAGCCGUGGGAGCCCCUCCAACUUCAUGUCGAUAAAGCGGUGUCGGGGCUCCGCAGCUUGACGACGUUGCUUCGGGCUCUGGGCGCACAAAAGGAGGCUAUUUCGCCGCCUGACGCGGCCUCCGCGGCACCCCUCCGAACGAUCACCGCGGACACGUUUAGGAAGCUUUUUAGAGUGUACAGCAAUUUCCUCCGCGGAAAGCUGAAAUUGUAUACUGGUGAAGCGUGUAGGACAGGGGAUCGCUGAUAAGCUGCCUUCUGCGGGGCUUGCCUUCUGGCCAUGCCCUUCUUCUCUCCCUUGCACCUGUACCUCUUGGUCUUUGAAUAAAGCCUGAGUAGGAAG
modifications: Cap1, 5-methylcytosine, pseudouridine
[1]; 0.005 mg/kg IV, 8 hours
  Average Serum Concentration: 387 pg/mL
  Female NHP Serum Concentration: 523 pg/mL
  Male NHP Serum Concentration: 250 pg/mL
[1]; 0.005 mg/kg IV, 24 hours
  Average Serum Concentration: 208 pg/mL
  Female NHP Serum Concentration: 302 pg/mL
  Male NHP Serum Concentration: 113 pg/mL
[1]; 0.005 mg/kg IV, 48 hours
  Average Serum Concentration: <7.8 pg/mL
  Female NHP Serum Concentration: <7.8 pg/mL
  Male NHP Serum Concentration: <7.8 pg/mL
[1]; 0.005 mg/kg IV, 72 hours
  Average Serum Concentration: 0 pg/mL
  Female NHP Serum Concentration: 0 pg/mL
  Male NHP Serum Concentration: 0 pg/mL
[1]; 0.005 mg/kg IV, Pre-bleed
  Average Serum Concentration: 0 pg/mL
  Female NHP Serum Concentration: 0 pg/mL
  Male NHP Serum Concentration: 0 pg/mL
[1]; 0.05 mg/kg IV, 8 hours
  Average Serum Concentration: 13,465 pg/ml
  Female NHP Serum Concentration: 19,858 pg/ml
  Male NHP Serum Concentration: 7,072 pg/ml
[1]; 0.05 mg/kg IV, 24 hours
  Average Serum Concentration: 11,546 pg/ml
  Female NHP Serum Concentration: 18,178 pg/ml
  Male NHP Serum Concentration: 4,913 pg/ml
[1]; 0.05 mg/kg IV, 48 hours
  Average Serum Concentration: 2,895 pg/ml
  Female NHP Serum Concentration: 5,291 pg/ml
  Male NHP Serum Concentration: 498 pg/mL
[1]; 0.05 mg/kg IV, 72 hours
  Average Serum Concentration: 402 pg/mL
  Female NHP Serum Concentration: 744 pg/mL
  Male NHP Serum Concentration: 60 pg/mL
[1]; 0.05 mg/kg IV, Pre-bleed
  Average Serum Concentration: 0 pg/mL
  Female NHP Serum Concentration: 0 pg/mL
  Male NHP Serum Concentration: 0 pg/mL
[1]; 0.005 mg/kg
  protein expression detectable out to: 48 h
[1]; 0.05 mg/kg
  protein expression detectable out to: 72 h
[2]; 8 hours
  Female NHP Serum G-CSF / EPO Concentration: 523 pg/mL
  Male NHP Serum G-CSF / EPO Concentration: 250 pg/mL
[2]; 24 hours
  Female NHP Serum G-CSF / EPO Concentration: 302 pg/mL
  Male NHP Serum G-CSF / EPO Concentration: 113 pg/mL
[2]; 48 hours
  Female NHP Serum G-CSF / EPO Concentration: 11 pg/mL
  Male NHP Serum G-CSF / EPO Concentration: 29 pg/mL
[2]; 72 hours
  Female NHP Serum G-CSF / EPO Concentration: <7.8 pg/mL
  Male NHP Serum G-CSF / EPO Concentration: <7.8 pg/mL
[2]; 7 days
  Female NHP Serum G-CSF / EPO Concentration: <7.8 pg/mL
  Male NHP Serum G-CSF / EPO Concentration: <7.8 pg/mL
[2]; Pre-bleed
  Female NHP Serum G-CSF / EPO Concentration: <7.8 pg/mL
